The test system of this experiment is PPIs identified as affected by the SH3 domain deletions. Kind of experiment: Liquid DHFR-PCA low-throughput validation of PPIs affected by SH3 deletion (Fig. S1D-E). The experiment is classed as cell-based, Saccharomyces cerevisiae. As to conditions: label = prey, liquid DHFR-PCA, prey _1 = lost, _2 = gained in screen. The gist of the method: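 Yeast diploids from DHFR-PCA mating grown 48 h in synthetic complete MSG medium pH 6.0 with NAT and HPH, normalized to 1 OD and diluted to 0.1 OD in liquid PCA selection medium. Growth followed by OD every 15 min for 72 h at 30 °C.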

B1: YDR329C_2 (protein, UniProt P28795 1-441, looked up)
Peroxisomal biogenesis factor …: MAPNQRSRSLLQRHRGKVLISLTGIAALFTTGSVVVFFVKRWLYKQQLRITEQHFIKEQIKRRFEQTQEDSLYTIYELLPVWRMVLNENDLNLDSIVTQLKDQKNQLTRAKSSESRESSPLKSKAELWNELELKSLIKLVTVTYTVSSLILLTRLQLNILTRNEYLDSAIKLTMQQENCNKLQNRFYNWVTSWWSDPEDKADDAMVMAAKKSKKEGQEVYINEQAFLSLSWWILNKGWLSYNEIITNQIEIEFDGIHPRDTLTLEEFSSRLTNIFRNTNSQIFQQNNNNLTSILLPKDSSGQEFLLSQTLDADALTSFHSNTLVFNQLVNELTQCIESTATSIVLESLINESFHFIMNKVGIKTIAKKKPGQEDQQQYQMAVFAMSMKDCCQEMLQTTAGSSHSGSVNEYLATLDSVQPLDDLSASVYSNFGVSSSFSFKP
As to B1, the “Ratio (Deletedscore / WTscore)” value (bait BEM1-1) is listed as 1.085.

B2: YJL095W_1 (protein, UniProt Q01389 1-1478, looked up)
Serine/threonine-protein …: MPFLRKIAGTAHTHSRSDSNSSVKFGHQPTSSVASTKSSSKSPRATSRKSIYDDIRSQFPNLTPNSTSSQFYESTPVIEQSFNWTTDDHISAGTLENPTSFTNSSYKNDNGPSSLSDSRKSSGGNSVNSLSFDKLILSWDPTDPDEWTMHRVTSWFKFHDFPESWILFFKKHQLFGHRFIKLLAYDNFAVYEKYLPQTKTASYTRFQQLLKKTMTKNVTNSHIRQKSASKLKSSRSSSESIKSKLKNSKSQEDISNSRSTSESALSPTKSGPSKTDEKNFLHSTSTHQKTKSASSLYRRSFISLRGSSSSNASSAKSPSNIKLSIPARPHSIIESNSTLTKSASPPASPSYPSIFRRHHKSSSSESSLLNSLFGSGIGEEAPTKPNPQGHSLSSENLAKGKSKHYETNVSSPLKQSSLPTSDDKGNLWNKFKRKSQIGVPSPNTVAYVTSQETPSLKSNSSTATLTVQTADVNIPSPSSSPPPIPKTANRSLEVISTEDTPKISSTTASFKETYPDCINPDKTVPVPVNNQKYSVKNFLLDQKFYPLKKTGLNDSENKYILVTKDNVSFVPLNLKSVAKLSSFKESALTKLGINHKNVTFHMTDFDCDIGAAIPDDTLEFLKKSLFLNTSGKIYIKDQMKLQQKPKPAPLTSENNVPLKSVKSKSSMRSGTSSLIASTDDVSIVTSSSDITSFDEHASGSGRRYPQTPSYYYDRVSNTNPTEELNYWNIKEVLSHEENAPKMVFKTSPKLELNLPDKGSKLNIPTPITENESKSSFQVLRKDEGTEIDFNHRRESPYTKPELAPKREAPKPPANTSPQRTLSTSKQNKPIRLVRASTKISRSKRSKPLPPQLLSSPIEASSSSPDSLTSSYTPASTHVLIPQPYKGANDVMRRLKTDQDSTSTSPSLKMKQKVNRSNSTVSTSNSIFYSPSPLLKRGNSKRVVSSTSAADIFEENDITFADAPPMFDSDDSDDDSSSSDDIIWSKKKTAPETNNENKKDEKSDNSSTHSDEIFYDSQTQDKMERKMTFRPSPEVVYQNLEKFFPRANLDKPITEGIASPTSPKSLDSLLSPKNVASSRTEPSTPSRPVPPDSSYEFIQDGLNGKNKPLNQAKTPKRTKTIRTIAHEASLARKNSVKLKRQNTKMWGTRMVEVTENHMVSINKAKNSKGEYKEFAWMKGEMIGKGSFGAVYLCLNVTTGEMMAVKQVEVPKYSSQNEAILSTVEALRSEVSTLKDLDHLNIVQYLGFENKNNIYSLFLEYVAGGSVGSLIRMYGRFDEPLIKHLTTQVLKGLAYLHSKGILHRDMKADNLLLDQDGICKISDFGISRKSKDIYSNSDMTMRGTVFWMAPEMVDTKQGYSAKVDIWSLGCIVLEMFAGKRPWSNLEVVAAMFKIGKSKSAPPIPEDTLPLISQIGRNFLDACFEINPEKRPTANELLSHPFSEVNETFNFKSTRLAKFIKSNDKLNSSKLRITSQENKTE
Turning to B2, the “Ratio (Deletedscore / WTscore)” value (bait NBP2) is 0.6492.

B3: YML035C_1 (protein, UniProt P15274 1-810, looked up)
AMP deaminase: MDNQATQRLNDLSLEPAPSHDEQDGSGLVIDIDQRKIGDEQAGVVVDDETPPLEQQDSHESLAADSRNANFSYHENQQLLENGTKQLALDEHDSHSAILEQPSHSTNCSSSNIAAMNKGHDSADHASQNSGGKPRTLSASAQHILPETLKSFAGAPVVNKQVRTSASYKMGMLADDASQQFLDDPSSELIDLYSKVAECRNLRAKYQTISVQNDDQNPKNKPGWVVYPPPPKPSYNSDTKTVVPVTNKPDAEVFDFTKCEIPGEDPDWEFTLNDDDSYVVHRSGKTDELIAQIPTLRDYYLDLEKMISISSDGPAKSFAYRRLQYLEARWNLYYLLNEYQETSVSKRNPHRDFYNVRKVDTHVHHSACMNQKHLLRFIKHKLRHSKDEKVIFRDGKLLTLDEVFRSLHLTGYDLSIDTLDMHAHKDTFHRFDKFNLKYNPIGESRLREIFLKTNNYIKGTYLADITKQVIFDLENSKYQNCEYRISVYGRSLDEWDKLASWVIDNKVISHNVRWLVQIPRLYDIYKKTGIVQSFQDICKNLFQPLFEVTKNPQSHPKLHVFLQRVIGFDSVDDESKVDRRFHRKYPKPSLWEAPQNPPYSYYLYYLYSNVASLNQWRAKRGFNTLVLRPHCGEAGDPEHLVSAYLLAHGISHGILLRKVPFVQYLYYLDQVGIAMSPLSNNALFLTYDKNPFPRYFKRGLNVSLSTDDPLQFSYTREPLIEEYSVAAQIYKLSNVDMCELARNSVLQSGWEAQIKKHWIGKDFDKSGVEGNDVVRTNVPDIRINYRYDTLSTELELVNHFANFKRTIEEK
As to B3, the “Ratio (Deletedscore / WTscore)” value (bait) was found to be 0.7244.

B4: YGL060W_1 (protein, UniProt P53169 1-641, looked up)
YAP1-binding protein 2: MYNEQVNSGKSIKEKERYLDALLKILKDNPVTLKEIGWDLPKGLLQFFSRKNINVNIHLVFSPLVSSVMECFNELAINGNPKECLLTACELVSTLHIVLTETGDSDEENEDLNDSNRNDASNITDELSVITPEIGHYMAKNTVEFIPNLKIYVLFEFMSLLLKRVDTLYPSKFLAMVTSAIIKYVTTNVQAMDDPHFILRIVYNFCTNYSPAQPSASLTDGISTNDLEKIHDDESALQKKLLANLSVFVISNCLKNHPGNIDKIYFKTLMHKKTDENEIDASVLQICHQYYEYVTSLDVHMKELLEKCLVESRSIYNSLLMNPAASTPEFKEEINQLVYEVSYAYQIKKLADEKNLELDQYGVVILSAIHYSKNGTHLLPQIDIQSAIYLYLRCTTASLFSEIYENKFLESSVRYWLWVSTTETSTEKIKCALQELPGHITTAFLQMLLMKTCNESNNDTKLTEITLLRRLLYLMPESTSFTFIFETLLHCPYITAKIAVLDILRDMMIRSPEAANRDETVGLIEQQNPGNTANSVPIMPTLPPRPYITINEDRMASIHSIALICFSAAKQKKRTQGDLLLVLTYMKFFVSLRNKWDLGLLTLINKEISESFQGEGEPELAFINISNNTLGEYIEEMNIRS
Turning to B4, under “bait RVS167”, the “Ratio (Deletedscore / WTscore)” value is 0.4505.

B5: YDL160C_1 (protein, UniProt P39517 1-506, looked up)
ATP-dependent RNA helicase …: MGSINNNFNTNNNSNTDLDRDWKTALNIPKKDTRPQTDDVLNTKGNTFEDFYLKRELLMGIFEAGFEKPSPIQEEAIPVAITGRDILARAKNGTGKTAAFVIPTLEKVKPKLNKIQALIMVPTRELALQTSQVVRTLGKHCGISCMVTTGGTNLRDDILRLNETVHILVGTPGRVLDLASRKVADLSDCSLFIMDEADKMLSRDFKTIIEQILSFLPPTHQSLLFSATFPLTVKEFMVKHLHKPYEINLMEELTLKGITQYYAFVEERQKLHCLNTLFSKLQINQAIIFCNSTNRVELLAKKITDLGYSCYYSHARMKQQERNKVFHEFRQGKVRTLVCSDLLTRGIDIQAVNVVINFDFPKTAETYLHRIGRSGRFGHLGLAINLINWNDRFNLYKIEQELGTEIAAIPATIDKSLYVAENDETVPVPFPIEQQSYHQQAIPQQQLPSQQQFAIPPQQHHPQFMVPPSHQQQQAYPPPQMPSQQGYPPQQEHFMAMPPGQSQPQY
As for B5, the “Ratio (Deletedscore / WTscore)” value (bait RVS167) was found to be 0.8286.

B6: YOL100W_1 (protein, UniProt Q12236 1-1081, looked up)
Serine/threonine-protein …: MYFDKDNSMSPRPLLPSDEQKLNINLLTKKEKFSHLDPHYDAKATPQRSTSNRNVGDLLLEKRTAKPMIQKALTNTDNFIEMYHNQQRKNLDDDTIKEVMINDENGKTVASTNDGRYDNDYDNNDINDQKTLDNIAGSPHMEKNRNKVKIEHDSSSQKPIAKESSKAQKNIIKKGIKDFKFGSVIGDGAYSTVMLATSIDTKKRYAAKVLNKEYLIRQKKVKYVSIEKTALQKLNNSPSVVRLFSTFQDESSLYFLLEYAPNGDFLSLMKKYGSLDETCARYYAAQIIDAIDYLHSNGIIHRDIKPENILLDGEMKIKLTDFGTAKLLNPTNNSVSKPEYDLSTRSKSFVGTAEYVSPELLNDSFTDYRCDIWAFGCILFQMIAGKPPFKATNEYLTFQKVMKVQYAFTPGFPLIIRDLVKKILVKNLDRRLTISQIKEHHFFKDLNFKDGSVWSKTPPEIKPYKINAKSMQAMPSGSDRKLVKKSVNTLGKSHLVTQRSASSPSVEETTHSTLYNNNTHASTESEISIKKRPTDERTAQILENARKGINNRKNQPGKRTPSGAASAALAASAALTKKTMQSYPTSSSKSSRSSSPATTSRPGTYKRTSSTESKPFAKSPPLSASVLSSKVPMPPYTPPMSPPMTPYDTYQMTPPYTTKQQDYSDTAIAAPKPCISKQNVKNSTDSPLMNKQDIQWSFYLKNINEHVLRTEKLDFVTTNYDILEKKMLKLNGSLLDPQLFGKPRHTFLSQVARSGGEVTGFRNDPTMTAYSKTEDTYYSKNIIDLQLLEDDYRIEGGDLSELLTNRSGEGYKCNQNSSPMKDDDKSESNNKGSSVFSGKIKKLFHPTSAAETLSSSDEKTKYYKRTIVMTSFGRFLVFAKRRQPNPVTNLKYELEYDINLRQQGTKIKELIIPLEMGTNHIVVIQTPYKSFLLSTDKKTTSKLFTVLKKILNSNTNKIEKELLQRNQKVIERRTSSSGRAIPKDLPTSKSPSPKPRTHSQSPSISKHNSFSESINSAKSNRSSRIFETFINAKEQNSKKHAAPVPLTSKLVNGLPKRQVTVGLGLNTGTNFKNSSAKSKRS
Take B6: for the setting “bait MYO3”, the “Ratio (Deletedscore / WTscore)” value was 0.53.

B7: YGL153W_2 (protein, UniProt P53112 2-341, looked up)
Peroxisomal membrane protein …: SDVVSKDRKALFDSAVSFLKDESIKDAPLLKKIEFLKSKGLTEKEIEIAMKEPKKDGIVGDEVSKKIGSTENRASQDMYLYEAMPPTLPHRDWKDYFVMATATAGLLYGAYEVTRRYVIPNILPEAKSKLEGDKKEIDDQFSKIDTVLNAIEAEQAEFRKKESETLKELSDTIAELKQALVQTTRSREKIEDEFRIVKLEVVNMQNTIDKFVSDNDGMQELNNIQKEMESLKSLMNNRMESGNAQDNRLFSISPNGIPGIDTIPSASEILAKMGMQEESDKEKENGSDANKDDNAVPAWKKAREQTIDSNASIPEWQKNTAANEISVPDWQNGQVEDSIP
For B7, where the note is “bait BEM1-1”, the “Ratio (Deletedscore / WTscore)” value is 1.295.

Source of the values: paper PMC7954794, “Protein context shapes the specificity of SH3 domain-mediated interactions in vivo” (Nature Communications, 2021).
